Columns and labels:
[1] = target: human neonatal Fc-receptor (FcRn) (human) (UniProt P55899); assay: FcRn affinity column chromatography
[2] = target: human neonatal Fc-receptor (FcRn) (human) (UniProt P55899); assay: FcRn affinity chromatography of the knobs-into-holes anti-VEGF/ANG2 antibody

Row | Substance | retention time [1] | further results
1 | symmetrically modified anti-HER2 antibody, mutation D98E | 46.2 min | –
2 | symmetrically modified anti-HER2 antibody, mutation K317H | 46.3 min | –
3 | bispecific anti-VEGF/ANG2 antibody (knobs-into-holes), first chain with I253A/H310A/H435A and second chain with H435A (bispecific antibody) | – | RT [min] (retention time on the FcRn affinity column) [2]: 0 min
4 | symmetrically modified anti-HER2 antibody, mutation E258H | 45.6 min | –
5 | symmetrically modified anti-HER2 antibody, mutation T256H | 46 min | –
6 | symmetrically modified anti-HER2 antibody, mutation E430H | 46.4 min | –
7 | bispecific anti-VEGF/ANG2 antibody (knobs-into-holes), no FcRn affecting mutation (bispecific antibody) | – | RT [min] (retention time on the FcRn affinity column) [2]: 52.8 min
8 | symmetrically modified anti-HER2 antibody, mutation K288E | 45.2 min | –
9 | symmetrically engineered IgG1 Fc-region, L234A/L235A/P329G with Y436A (antibody) | – | FcRn-affinity column retention time [1]: 41.3 min
10 | bispecific anti-VEGF/ANG2 antibody (knobs-into-holes), first chain with I253A/H310A/H435A and second chain with H310A (bispecific antibody) | – | RT [min] (retention time on the FcRn affinity column) [2]: 0 min
11 | bispecific anti-VEGF/ANG2 antibody (knobs-into-holes), first chain with I253A/H310A/H435A and second chain with I253A/H310A/H435A (bispecific antibody) | – | RT [min] (retention time on the FcRn affinity column) [2]: 0 min
12 | symmetrically modified anti-HER2 antibody, mutation R255D | 41.4 min | –

Second part, led by results:

Row | retention time [1] | Substance | further results
13 | 46.3 min | symmetrically modified anti-HER2 antibody, mutation Q311H | –
14 | 46.2 min | symmetrically modified anti-HER2 antibody, mutation K290H | –
15 | 45.5 min | symmetrically modified anti-HER2 antibody, mutation L309H | –
16 | 52 min | symmetrically modified anti-HER2 antibody, mutation N434H | –

Reference: US20160194389A1
